The values below come from the supplement of paper PMC10126150.

In this data set the test system is ATP. The data set can be described thus: switch fluorescence ratio, 500 uM ATP over buffer (Cy3 cluster intensity, sum of 5 cycles each) (fold (ratio)); higher = stronger signal-on switching upon ATP binding; sequences stand for … in TCGTCGGCAGCGTCAGATGTGTATAAGAGACAGTTTTTTTTTTTTTTTTTTTTTTTTT…TC. As to conditions: aptamer strand: ATP DNA aptamer (quencher-CACCTGGGGGAGTATTGCGGAGGAAGG + anchor), 100 nM annealed; ATP concentration: 500 uM. In short, it runs like this:
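Per cluster, summed Cy3 intensity from the target cycles was divided by that from the buffer cycles to give the fluorescence ratio, then averaged per switch-domain sequence. Clusters outside 100-1000 RFU were excluded. The Cy3-labelled switching-strand clusters, on a modified Illumina MiSeq flow-cell, were annealed to 100 nM quencher-labelled ATP aptamer and imaged in selection buffer, then after 15 min with 500 uM ATP at 22 °C, for five cycles with NaOH stripping and re-annealing between them.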

± gives the standard deviation of the averaged measurements.
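Also: ATP exposure 15 min at 22 °C before imaging.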

Take ATTACTAAAT: the switch fluorescence ratio was determined as 1.01 ± 0.02.

On to ATTACTAGGA, for which the switch fluorescence ratio was 1 ± 0.057.

Take ATTACTGGGG: the switch fluorescence ratio was determined as 0.99 ± 0.019.

Take ATTAGAAATG: the switch fluorescence ratio was found to be 0.9973 ± 0.0062.

Take ATTAGACTTG: the switch fluorescence ratio came out at 1.01 ± 0.065.

As for ATTAGCAGGC, the switch fluorescence ratio amounted to 1.11 ± 0.012.

ATTAGCGTTT: the switch fluorescence ratio is 0.977 ± 0.066.

With ATTAGGGGGG, the switch fluorescence ratio came out at 0.998 ± 0.012.

On to ATTAGGGGGT, for which the switch fluorescence ratio amounted to 0.988 ± 0.036.

As to ATTAGGGTAA, the switch fluorescence ratio amounted to 1.02 ± 0.026.

Regarding ATTAGGTATA, the switch fluorescence ratio was 0.9712 ± 0.0036.

Take ATTAGGTTCT: the switch fluorescence ratio stood at 0.97 ± 0.051.

Consider ATTAGGTTGG, for which the switch fluorescence ratio stood at 0.987 ± 0.027.

For ATTAGTAAAG, the switch fluorescence ratio worked out at 0.9972 ± 0.0073.

As to ATTAGTCAAT, the switch fluorescence ratio turned out to be 1.0167 ± 0.0006.

Turning to ATTAGTGAGC, the switch fluorescence ratio was 1.03 ± 0.051.

As to ATTAGTGGCA, the switch fluorescence ratio was determined as 0.982 ± 0.013.

On to ATTAGTTATT, for which the switch fluorescence ratio is 1.02 ± 0.015.

For the sequence ATTAGTTTGA, the switch fluorescence ratio came to 0.985 ± 0.014.

In the case of ATTATAAAGC, the switch fluorescence ratio turned out to be 1.03 ± 0.063.

Take ATTATATTGC: the switch fluorescence ratio was 1.01 ± 0.026.

For ATTATCACGA, the switch fluorescence ratio turned out to be 0.989 ± 0.014.

Take ATTATCCGCT: the switch fluorescence ratio came to 1.15 ± 0.014.

Take ATTATGCTG: the switch fluorescence ratio turned out to be 0.98 ± 0.05.

With ATTATGCTGG, the switch fluorescence ratio was found to be 0.994 ± 0.026.

Consider ATTATGGGAT, for which the switch fluorescence ratio worked out at 0.996 ± 0.029.

As for ATTATGGGGA, the switch fluorescence ratio was 0.995 ± 0.016.

ATTATGGTCA: the switch fluorescence ratio came to 0.994 ± 0.023.

With ATTATGTTGT, the switch fluorescence ratio is 0.981 ± 0.028.

ATTATTAACG: the switch fluorescence ratio turned out to be 0.993 ± 0.033.

With ATTATTCGGT, the switch fluorescence ratio was 0.986 ± 0.013.

With ATTATTGAGA, the switch fluorescence ratio came out at 1.036 ± 0.004.

In the case of ATTATTGGTA, the switch fluorescence ratio was 0.987 ± 0.012.

On to ATTATTGGTC, for which the switch fluorescence ratio stood at 0.99 ± 0.029.

In the case of ATTATTTGCC, the switch fluorescence ratio came out at 0.99 ± 0.01.

As to ATTCAATTTT, the switch fluorescence ratio came out at 0.996 ± 0.051.

For ATTCACCGCG, the switch fluorescence ratio is 1.155 ± 0.0057.

Consider ATTCACGGCC, for which the switch fluorescence ratio was 1.06 ± 0.043.

On to ATTCAGAAGG, for which the switch fluorescence ratio was determined as 1.01 ± 0.041.

Turning to ATTCAGCATT, the switch fluorescence ratio is 1.05 ± 0.02.

Consider ATTCATCGTA, for which the switch fluorescence ratio amounted to 1.0012 ± 0.0006.

ATTCATGGGT: the switch fluorescence ratio was 0.998 ± 0.024.

ATTCATTTTT: the switch fluorescence ratio amounted to 1.004 ± 0.01.

Regarding ATTCCTAGAT, the switch fluorescence ratio turned out to be 1.002 ± 0.0091.

On to ATTCCTAGTG, for which the switch fluorescence ratio amounted to 1.03 ± 0.035.

Take ATTCCTTGTA: the switch fluorescence ratio stood at 0.989 ± 0.039.

Regarding ATTCGACAGA, the switch fluorescence ratio is 1.02 ± 0.016.

In the case of ATTCGATAGT, the switch fluorescence ratio came to 1.03 ± 0.018.

For the sequence ATTCGATATC, the switch fluorescence ratio was 1.03 ± 0.012.

Consider ATTCGATTTC, for which the switch fluorescence ratio amounted to 1 ± 0.033.

Consider ATTCGCGGAA, for which the switch fluorescence ratio turned out to be 1.02 ± 0.029.

As to ATTCGTGTAT, the switch fluorescence ratio turned out to be 0.977 ± 0.04.

ATTCTACCGC: the switch fluorescence ratio is 1.49 ± 0.08.

Take ATTCTGGGAT: the switch fluorescence ratio is 1.013 ± 0.0027.

Take ATTCTGTGTG: the switch fluorescence ratio is 0.9648 ± 0.0023.

Take ATTCTGTTTG: the switch fluorescence ratio was 0.987 ± 0.043.

In the case of ATTCTTAGTA, the switch fluorescence ratio stood at 0.986 ± 0.03.

Regarding ATTCTTCCGC, the switch fluorescence ratio was found to be 3.88 ± 0.16.

With ATTGAAAAAC, the switch fluorescence ratio is 1.03 ± 0.022.

For the sequence ATTGAAAGCA, the switch fluorescence ratio came out at 1.03 ± 0.025.

Regarding ATTGAAAGTG, the switch fluorescence ratio is 0.9859 ± 0.0074.

Consider ATTGAAATGG, for which the switch fluorescence ratio was 1.02 ± 0.044.

ATTGAATGGC: the switch fluorescence ratio was found to be 1.04 ± 0.068.

On to ATTGAATGTA, for which the switch fluorescence ratio came out at 0.98 ± 0.016.

Consider ATTGAATTCT, for which the switch fluorescence ratio is 1.02 ± 0.14.

For the sequence ATTGACTCAG, the switch fluorescence ratio stood at 1.01 ± 0.012.

With ATTGAGAGCA, the switch fluorescence ratio worked out at 0.985 ± 0.021.

On to ATTGAGCAAA, for which the switch fluorescence ratio was determined as 1.11 ± 0.056.

On to ATTGAGCGGA, for which the switch fluorescence ratio is 1.0358 ± 0.001.

Turning to ATTGAGCGTG, the switch fluorescence ratio turned out to be 1.01 ± 0.015.

Turning to ATTGAGTCAC, the switch fluorescence ratio stood at 0.991 ± 0.016.

With ATTGAGTTGT, the switch fluorescence ratio was 0.947 ± 0.066.

Take ATTGATAGGG: the switch fluorescence ratio was 1.03 ± 0.037.

In the case of ATTGATATTG, the switch fluorescence ratio worked out at 0.979 ± 0.011.

As to ATTGATGTA, the switch fluorescence ratio is 1.0136 ± 0.00015.

Take ATTGATTGAA: the switch fluorescence ratio came to 1.01 ± 0.012.

Turning to ATTGATTTAT, the switch fluorescence ratio came to 0.987 ± 0.045.

Take ATTGATTTGT: the switch fluorescence ratio stood at 0.975 ± 0.018.

With ATTGATTTTC, the switch fluorescence ratio came to 0.999 ± 0.024.

Regarding ATTGCCCTTA, the switch fluorescence ratio is 1.06 ± 0.071.

Consider ATTGCGCTTC, for which the switch fluorescence ratio stood at 1.063 ± 0.0095.

Consider ATTGCGGCAC, for which the switch fluorescence ratio stood at 1.05 ± 0.024.

ATTGCGGGGG: the switch fluorescence ratio turned out to be 0.994 ± 0.019.

For ATTGCGGGTT, the switch fluorescence ratio is 0.981 ± 0.013.

For the sequence ATTGGACCAT, the switch fluorescence ratio is 0.976 ± 0.036.

As for ATTGGAGGGC, the switch fluorescence ratio came out at 0.96 ± 0.038.

Consider ATTGGATGGG, for which the switch fluorescence ratio stood at 0.997 ± 0.057.

Consider ATTGGATTTT, for which the switch fluorescence ratio worked out at 1 ± 0.028.

ATTGGCACT: the switch fluorescence ratio is 1.03 ± 0.018.

For ATTGGCGGTT, the switch fluorescence ratio stood at 1.09 ± 0.1.

For the sequence ATTGGCTTT, the switch fluorescence ratio came to 0.9788 ± 0.0025.

On to ATTGGCTTTA, for which the switch fluorescence ratio came out at 1.004 ± 0.0034.

On to ATTGGGAAAG, for which the switch fluorescence ratio stood at 1.02 ± 0.041.

Turning to ATTGGGCACC, the switch fluorescence ratio is 0.998 ± 0.048.

For the sequence ATTGGGCGCT, the switch fluorescence ratio worked out at 0.99269 ± 2.5e-05.

Take ATTGGGCTTC: the switch fluorescence ratio came out at 1.01 ± 0.015.

Take ATTGGGGCGG: the switch fluorescence ratio came to 0.9842 ± 0.0054.

ATTGGGGGGT: the switch fluorescence ratio amounted to 0.988 ± 0.015.

For the sequence ATTGGGGTGC, the switch fluorescence ratio amounted to 0.992 ± 0.013.

With ATTGGGTATG, the switch fluorescence ratio is 0.998 ± 0.044.

Turning to ATTGGGTTAG, the switch fluorescence ratio amounted to 0.975 ± 0.032.

Regarding ATTGGGTTTC, the switch fluorescence ratio worked out at 0.982 ± 0.021.

Take ATTGGGTTTG: the switch fluorescence ratio was found to be 1.01 ± 0.021.

Regarding ATTGGTAACC, the switch fluorescence ratio came to 1.01 ± 0.039.

In the case of ATTGGTATGA, the switch fluorescence ratio amounted to 0.994 ± 0.018.

As for ATTGGTGACG, the switch fluorescence ratio turned out to be 1.02 ± 0.047.

As to ATTGGTGATT, the switch fluorescence ratio amounted to 0.974 ± 0.038.

As for ATTGGTGGAG, the switch fluorescence ratio is 1.007 ± 0.0033.

With ATTGTAAGTG, the switch fluorescence ratio was found to be 1.03 ± 0.088.

As for ATTGTACAGG, the switch fluorescence ratio is 1.033 ± 0.0021.

Take ATTGTAGACC: the switch fluorescence ratio stood at 1.0225 ± 0.00081.

Take ATTGTAGTGC: the switch fluorescence ratio was found to be 0.97 ± 0.021.

ATTGTATAAA: the switch fluorescence ratio stood at 1.04 ± 0.056.

Regarding ATTGTATTTA, the switch fluorescence ratio was found to be 0.9842 ± 0.0079.

Turning to ATTGTCATGG, the switch fluorescence ratio was 0.999 ± 0.028.

For the sequence ATTGTCGCCG, the switch fluorescence ratio was 1.02 ± 0.043.

On to ATTGTCGTTC, for which the switch fluorescence ratio was determined as 1.027 ± 0.0098.

On to ATTGTCTTGA, for which the switch fluorescence ratio turned out to be 0.9688 ± 0.0015.

As to ATTGTGAGAC, the switch fluorescence ratio came out at 0.986 ± 0.01.

ATTGTGCTGA: the switch fluorescence ratio was 0.9481 ± 0.0073.
